Assay results: the DeepSol protein solubility set

experiment: soluble on expression in E. coli; label from the status in PepcDB or PDB records

Question: Which “soluble on expression in E. coli” value does the source give for “MSLKKLISGIIAVAMALSLAACQKETKVISLSGKTMGTTYHVKYLDDGSITATSEKTHEEIEAILKDVNAKMSTYKKDSELSRFNQNTQVNTPIEISADFAKVLAEAIRLNKVTEGALDVTVGPVVNLWGFGPEKRPEKQPTPEQLAERQAWVGIDKITLDTNKEKATLSKALPQVYVDLSSIAKGFGVDQVAEKLEQLNAQNYMVEIGGEIRAKGKNIEGKPWQIAIEKPTTTGERAVEAVIGLNNMGMASSGDYRIYFEENGKRFAHEIDPKTGYPIQHHLASITVLAPTSMTADGLSTGLFVLGEDKALEVAEKNNLAVYLIIRTDNGFVTKSSSAFKKLTETKEEGGSHHHHHH” here?
Answer: soluble

Question: Which “soluble on expression in E. coli” value does the source give for “MSSKSTKRAKIEDPKDNVFMVEKVLDKRTGKAGRDEFLIQWQGFPESDSSWEPRENLQCVEMLDEFEREFSKREKPIRKRHSQKPEPSEDQADPEEDKDEKKETNQNDKFSLEGKQLKCIVGLTKGPGELHFLCKFSDDTARLLPAKEVNSRYPSQVIRYYESKLTIQDPKADEL” here?
Answer: not soluble

Question: For “AVKILEIEDLFSSLKHIQHTLVDSQSQEDISLLLQLVQNKDFQNAFKIHNAITVHMNKAS”, which “soluble on expression in E. coli” value is on record?
Answer: soluble

Question: With “MSLKHMLIAGGGIGGLSAAISLRKAGFSVTLCEAASENRKTGAGILQPQNALAVLKELGVFEDCCKHGFQTEWFKTFDEQGNLLFQVSESFLDDSLPGRNNILRKTLNDILMKHAEAVGVDIKWGKKVVAYEETAESVTALCEDGEKMQADILAGFDGIHSVVRDKMLQKETEKEHLGMGAWRFYIELPDYTFEDATFMYRSGDTQIGVVPLAQHAGYVFVLQPCTSDYWDEEDTRFDRVKEILSGFRGLDFVTKHMSKQHPVIFNKLEQVAVQEPWHKGRVIIGGDAAHAGAPTLAQGAAMAIEDAIVLAEELQNHADHETALQAYYKRRAPRALKVQNLSSEIVRRRLKGEPGAEELIGECYAVLREGYEGGSHHHHHH” as the sequence, how does the “soluble on expression in E. coli” value read?
Answer: soluble

Question: For “MGSDKIHHHHHHMRAIAIVLARSSSKRIKNKNIIDFFNKPMLAYPIEVALNSKLFEKVFISSDSMEYVNLAKNYGASFLNLRPKILADDRATTLEVMAYHMEELELKDEDIACCLYGASALLQEKHLKNAFETLNKNQNTDYVFTCSPFSASPYRSFSLENGVQMAFKEHSNTRTQDLKTLYHDAGLLYMGKAQAFKEMRPIFSQNSIALELSPLEVQDIAHFRRFRISQAQIQPFEKRMPVKILCDCFLTSGLGHVRRCEKILSFIEKLGVEASLYLHKQNNISAFLEGVGGNDFLITDSYCLNSKDFYLLKEKAKSLMVIEDTEHAKGFYPKNTKILNFTLNALKHYHHLSKDYQYYLGVGFYPVDARFIYDRPINTENKEVLITLGGSEQKTLKEIVKILENKNVNLHIISPYTPKNPPKNTHYYSPLNPLEFSSLMKSCACAISAAGQTLYELALSQTPSLILPIASNQIIQSKEFESLGIFKQTSLKTLAKDFENLQIQKNQAWAKNLVFGDKLEGALREFLEI”, which “soluble on expression in E. coli” value is on record?
Answer: not soluble

Question: For “MAHHHHHHMSLAGQFTTFCRTHEQPMNEESCAVFLMAIEVAPSTRQQYARMLRSMLEMNRTPLDMVILGLQKIASRSETKQTRPSTKERGGRMYPQPDRLEGTCCLTTCVDNGELLVRGFGLDFQQFHTGVGRGLSFGLARGAEDGEGGSIPRLAVREDTRAGRLRQYKAMQDTSRKRKAYEAYDCTGDTISGSLGCHGAFHKTGSVEARCSNRGDMRFGPARGLAVGEARRPVRPSPEYCSIFGEIHHNADPGVVIDRIDVKGETAEGQELWLRAEERFFHDFNHNHAATITRRATRTRPTTPQNEHAIPLQQVNVPVLNLEWIQIRLNPATLERLMQVWGLVGRSPFPLSSSGKAREGSRSIPTADARLLNAAGIIEDASSTITGGWIIPFFGCGGENHRFTTTMDRVATRQEQRRAL”, which “soluble on expression in E. coli” value is on record?
Answer: not soluble

Question: With “MQTENKTSPYYRTKLRGLYTTAKADAEAECSILRRALDKIAEIKSLLEERRIAARMAGVYSDNDPPRKTMRRGVLMTLLQQSAMTLPLWIGKPGESPPPLCGAIPASSDYVAKQGDKVAARVKAVDGDEQWILAEVVSYNHSTNKYEVDDIDEEGKERHTLSRRRIIPLPQWEANPETDPEALFSKDQLVLALYPQTTCFYRALIHTPPHRPQDDYSVLFEDTSYADGYSPPLNVAQRYVVACKENKKK” as the sequence, how does the “soluble on expression in E. coli” value read?
Answer: not soluble

Question: With “MAQKKPKRNLSALKRHRQSLKRRLRNKAKKSAIKTLSKKAIQLAQEGKAEEALKIMRKAESLIDKAAKGSTLHKNAAARRKSRLMRKVRQLLEAAGAPLIGGGLSA” as the sequence, how does the “soluble on expression in E. coli” value read?
Answer: soluble

Question: For “MGSDKIHHHHHHVPATYPLSSCIEWQFAEAGDLAARVRAAKADGFDLVEFHLWRDKPVEAIGAALADTGVALTGVCVDPRRSIVDPAERAEMVEAVRETIAATAPLGKPPLIVASGFRVEGMSEEDHFANAVAALKQAAALAEDAGVTLLLEPLNTRLFSAMYLVSTTLGLDLVEAVGSPNLRLLYDVWHSAVMGEDIADVLAGRIGLVAHVQVADMEDRNEPGTGTVDWAHVMNTLKSLGYQGSIGMEYFPTLPMDQSLKLTRETLAL”, which “soluble on expression in E. coli” value is on record?
Answer: not soluble

Question: Which “soluble on expression in E. coli” value does the source give for “MSLNELPRPDMMFGLKVVLAATDFSARSDRAVRRAAALARQSGARLVIAHVVDDDQPEHIVAVEVELAESALADAIREHTYLAGLQCTPLVLLGTPFDAIVRAAHQQGADLCVVGSHRRAFLRDIFAGTTAERVIRNSTVPVLMANLDPALPYAKSLAPVDLTDCSAQALETARQLGLLQRTKLIVMHVYDAAAAGMLNYAGVDKTSLDDYLVDTRTDAVRDLVRFLEPLRLDDVDYSTVVKEGAGPATDIIEAATELRPDLVVIGTHARRGAVRLLLSSVTEEVLRRLQRDILVVPVRDAGSEGHHHHHH” here?
Answer: soluble

Question: For “MGSDKIHHHHHHMAESKIAERAFYQPGASSIEGMPTTLQLFHNHPPIMLRPHWHAQVEVNYVMSGSVHYRMGDHDLTLNAGQMCIFWGGQPHQMDRSSDDSFYAGAHLPLVHFFRMRLPAAISSQLMDGATMVSGETDRADAENFGRWFRYVTSGDPAKAQHAVEELLLRVERMFLEPYSVISSADHGKRKEDDEGMAPSIGVVRMCDFIAANFLDDIDAADIARAASLHPKYAMNLFRKSTGMTLIKYLTLLRLSRAQAMLMTGKDNILQIAMESGFGSVSAFNKAFRQISGMSPSDFRRDMRAAAA”, which “soluble on expression in E. coli” value is on record?
Answer: not soluble

Question: With “MSLRAKVTTKKYSVCEAPKVSEEELLSALVDRHKGKVQFIDFWATWCGGCRRTIKEYEPIKKELGENVAFVYLTGPSSIEKTWKILIQDIVGEHYWLNEKQWGYLWKHFQMKGLPMYLVIDKQGNIVKRFTHVTRKELEELLKQEINKEGHHHHHH” as the sequence, how does the “soluble on expression in E. coli” value read?
Answer: soluble

Question: For “MGSDKIHHHHHHMFVQARIDTTQDALVWPVVEFQGWVAFFGQRDSFDVYLNGDRVDNVHTVARPDVEEVLGAGWASIGWHVVCDIGQSARDNGHAIIFDVRVRTQTVAQGCFRYKDRLETTTQPLKIILHMPKTGGTSLRLALEEHRKNLFLLPLYHRDFSAIKSLSSLSVDRLDVAYGHVLYGIHEQIARPVTYMTVLRNPYDFVTSLYFFAKYVQRDHSILAAENIVDAVNTVNRPEFDNYYTRTIAGIQPEEPVTEEDLQRAIKNIDTHFSFIGLAERSRQSFRIFSEVFGLPLRYLKENVTPDLVEREFMNFRSVNEEIKKCINLDLILYKYAIKKFWYMDIE”, which “soluble on expression in E. coli” value is on record?
Answer: not soluble

Question: For “MEIGDLNEVNELVSRLNNENVKIAEVNDYIQTLSAGIEEMNVQAQQLSDFAVESSSMAEKGKEISDNVALKVSKISETSREMSNAISILAEYSKKIDEIVYVISSIASQTNLLALNASIEAARAGEAGRGFAVVAENVRELADRSKKAAEQIRDLIKEMQENTNRVIEAIQENVKVTEEVKEAIQELIAAFDDIARRANETATMVKELSEGIDEQANSVQMLVERIDSISKDVSDNLNFATQLTETVKGSIEKLEVIKNKVSQLKDELDKTLEKLEV”, which “soluble on expression in E. coli” value is on record?
Answer: soluble

Question: With “MSLDGKVAVLTGTKKIEVKKLPVPEINDDEMLVKVEGCGVCGTDVFEYKSDPFNYIPVNLGHEGTGEIVKMGKNVKNDWTGKTLKIGDKIVCGPAANGDIYGLMGGEKHYFNGWLANYMVINPNSVVFNVSDMPLDLRILIEPAAVSCHAVAKSKEIYTFKHSSSVVVQGVGPIGLMVIAQMKTLGVRHIIAVDGNASRLELAKKIGATATVNIDDGDSVAAVKELTDGKGANFVFQCTGSTKGASTAWKFLTDHGGICEVGFFVDNGEATYNPHFDVCMPETKITGSWAYVPEDWVEATEFLRETKDEGLDMTQLITNVYPLDQMNEAMAKNMSGTGVKIVYKNNEGHHHHHH” as the sequence, how does the “soluble on expression in E. coli” value read?
Answer: soluble

Question: With “MQIVQIEQAPKDYISDIKIIPSKSLLLITSWDGSLTVYKFDIQAKNVDLLQSLRYKHPLLCCNFIDNTDLQIYVGTVQGEILKVDLIGSPSFQALTNNEANLGICRICKYGDDKLIAASWDGLIEVIDPRNYGDGVIAVKNLNSNNTKVKNKIFTMDTNSSRLIVGMNNSQVQWFRLPLCEDDNGTIEESGLKYQIRDVALLPKEQEGYACSSIDGRVAVEFFDDQGDDYNSSKRFAFRCHRLNLKDTNLAYPVNSIEFSPRHKFLYTAGSDGIISCWNLQTRKKIKNFAKFNEDSVVKIACSDNILCLATSDDTFKTNAAIDQTIELNASSIYIIFDYENLEHHHHHH” as the sequence, how does the “soluble on expression in E. coli” value read?
Answer: soluble

Question: With “MSEDGGVTTDERACAAPLQLSNTFPRVSRHAVQTGLSPHPRVRNVIAVGSGKGGVGKSTIAVNLAVALQRTGVRVGLLDADIYGPSVPAMLGLSGRPESPDNKLIEPLRAFGIEAMSIGLLIDVDTPMIWRGPMATSALTQLFNDTLWGDLDYLLIDLPPGTGDIQLTLSQKIPVAGAVIVTTPQDIATLDARKALKMFEKVNVPVLGIVENMAMHCCRQCGHVEHLFGEGGAQRMAEHYHVPLLGSLPLDIVIREHGDLGQPITVAAPKGSVGQAYAAVAACLAAELAKRPRAAIPMTTTLGLEHHHHHH” as the sequence, how does the “soluble on expression in E. coli” value read?
Answer: not soluble

Question: With “RHAGVVTAVERHGESLLEVTCRLQGDWSHRAGQFAFLTCDRLEGAHPFTIASADRGCGEVRFSIKALGDYTRRLQDNLEVGARVEVEGPYGCFDFRRGLAGRQVWVAAGIGVTPFIAWLESLQAAPESAPSVELHYCVRNSQEALFAGRLRELCEH” as the sequence, how does the “soluble on expression in E. coli” value read?
Answer: not soluble

Question: With “MDQSSHHHHHHMDQKQIEEIVRSVMASMGQAAPAPSEAKCATTNCAAPVTSESCALDLGSAEAKAWIGVENPHRADVLTELRRSTVARVCTGRAGPRPRTQALLRFLADHSRSKDTVLKEVPEEWVKAQGLLEVRSEISDKNLYLTRPDMGRRLCAEAVEALKAQCVANPDVQVVISDGLSTDAITVNYEEILPPLMAGLKQAGLKVGTPFFVRYGRVKIEDQIGEILGAKVVILLVGERPGLGQSESLSCYAVYSPRMATTVEADRTCISNIHQGGTPPVEAAAVIVDLAKRMLEQKASGINMTR” as the sequence, how does the “soluble on expression in E. coli” value read?
Answer: soluble

Question: With “MAHHHHHHMPTPRETVVAFLTQACCGTIVALHRMGGMEVMLYKEQLVVMLTRYFNSCWNSLLSGDDPYVVESFNMMKHDNPGCVMRYLFSVGTSVLPDEPPQEIARYSPEDTDDLEAARVTISETLQQLLAERIAVDPFQHSCEGLSLSAERTAWSEKGCPPQNFFEIS” as the sequence, how does the “soluble on expression in E. coli” value read?
Answer: soluble

Question: For “MGSDKIHHHHHHMKRRELLVLGGLSTIAAGMGRQWFQPVSAQAITPLPASDRPLDLRFIAVADTGTGARGQYDVAAAMERYRRANPYKLAVLAGDNIYNNGEIEKIQAVFERPYAPLLKSGVKFRAVLGNHDIRTNNGNDQVRYPGFNMTGRYYQFQEGPVAFFALDTNGNADWNKQLTWLDRALQASNAPWKVVFGHHPIYSSGFYGVNRTLLGRLVPLFKRHGVQLYISGHDHSYERTQPIDGTTYLIVGAGAGLRPVGRSSWTAQSASTLSFAGLEVYGNELRIQTFDKDSRLIDQGQIFA”, which “soluble on expression in E. coli” value is on record?
Answer: not soluble
